Assay results: patent publication US20090005257A1

Key:
[1] = biological target: protein A (UniProt P38507); test: phage ELISA on protein A, heated 80 C against unheated, three data points
[2] = biological target: protein A (UniProt P38507); test: phage ELISA screen on protein A, heated 80 C against unheated (Section 4); mean of clones with this mutation

DP47 F100nV, sequence (VH): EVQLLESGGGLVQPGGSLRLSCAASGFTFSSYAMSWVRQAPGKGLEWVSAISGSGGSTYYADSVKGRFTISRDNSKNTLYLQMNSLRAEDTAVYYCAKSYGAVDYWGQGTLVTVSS

DP47 F100nV
Refoldability on phage (protein A binding retained after heating) [1]: 2%

DP47 F100nV/Y102S
Refoldability on phage (protein A binding retained after heating) [1]: 2%

DP47-F27C
mean % refolding (pA-ELISA) [2]: 56%

DP47-G54P
mean % refolding (pA-ELISA) [2]: 28%
